Reference: the nanobody polyreactivity screen of Harvey et al. (2022)

Test: yeast display, Sf9 membrane polyspecificity reagent, FACS + sequencing; frameworks hold sequencing errors
Summary of the method: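 Nanobodies came from a synthetic yeast display library in Saccharomyces cerevisiae BJ5465, induced with galactose for 36–48 hours and stained for 1 hour at 4 °C with 10% biotinylated, detergent-solubilized Sf9 membrane reagent. Cells were enriched on streptavidin microbeads and then FACS-sorted, with low and high (top ~1%) gates set on anti-HA fluorescence for expression and streptavidin fluorescence for reagent binding. Each polyreactivity label reflects the gate a clone came from. Genes were amplified by colony PCR, sequenced by MiSeq 2 × 250 and filtered by CDR length.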

Row | Sequence | polyreactivity (PSR sort gate)
1 | QVQLVDSGGGLFQAGGSLRLSCAASGRTFVGYSMGWYRQAPGKEMEVVATITNDDITYADSVKGRFTISRDNAMNTVYLQMNSLNPEETAVYYCNTSYSYGTAYEQYRYKALYDYWGHGTQVTVSS | low polyreactivity
2 | QVQLVDSGGGLGQVGGSRRVSCAASGRTFWWYPMGWYRQSPGKERELVAAISRGSTNYADSVKGRFAISRDNAKNTVYLQMNSQKPEDTAVYYCAAYVVWLYGYDYGGQGTQVTVSS | low polyreactivity
3 | QVQLVDSGGGLLQAGASLRLSCAASGITFYINAMGWYRQPPGKERALVAVIDSRGSSTFYADSVKGRFTISRHNAKNSVYLQMNSLKPEYTAVYYCAAEPDTYWYTYDYWGQRTQVTVSS | low polyreactivity
4 | QVQLVDSGGGLLQAGGILSLSCAASGSIFPYYAMGWYRQAPGKERELVAVITTVGGSTYYADSVKGRFTISRDNAKYTVYLQMNSLKPEDTAVYYCADEEDYIYFYFSMDYWGQGTQVTVSS | low polyreactivity
5 | QVQLVDSGGGLVQAGGILRLSCAASGFIFKKNAMGWYRQAHGKEREFVAAITSSGGSTYYADSVKGRFTISRDNAKNTVYLQMNSLKPEDTAVYFCARGTSWWRSRSITFTYDYWGQGTQVTVSS | high polyreactivity
6 | QVQLVDSGGGLVQAGGILRLSCAASGRTFTYYTMGWYRQAPGKESEMVAAITWSGGRTYYADSVKGRFTISRDNAKNTVYLQMNILKPEDTAVYYCAAYEIYYEFDSWGQGTQVTVSS | low polyreactivity
7 | QVQLVDSGGGLVQAGGILRLSCAASGSTFRRYSMGWYRHAPGKQRELVAAISGRGGSTSYADSVKGRFTISRDNAKNTVYLQINSLKPEDTAVYYCAADDKYFYPGNGYWGQGTQVTVSS | high polyreactivity
8 | QVQLVDSGGGLVQAGGILRLSCAASGSTFRYYAMGWYRQAPGKERELVAAITKNGGSTYYADSVKGRFTISRDNAKNTVYLQMNSLKPEDTAVYYCAVQFSYSGWYYVSYYYWGQGTQVTVSS | high polyreactivity
9 | QVQLVDSGGGLVQAGGRLRLSCAASGFTFPSNAMGWYRKAPGKERQLVASINQRGGSTYYADSVKGRFTISRDNAKNTVYLQMNSLKPEDTAVYYCAAGPTSRRWYDYWGQGTQVTVSS | high polyreactivity
10 | QVQLVDSGGGLVQAGGRLRLSCAASGSIYAAYTMGRYRQAPGKERELVAAISVSTVSTYYADSVKGRFTISRDNAKNTVYLQMNSLKPDDTAVYYCNADATYSYPEKDEPDSWGQGTQVTVSS | low polyreactivity
11 | QVQLVDSGGGLVQAGGSHRLSCAASGLTFRKYPMGWYRQAPGKERELVATISRNGGSTYYADSVKGRFTISRDNAKNTVYFQMNSLKPEDTAVFYCAADYYNYDYAGYGYWGQVTQVTVSS | high polyreactivity
12 | QVQLVDSGGGLVQAGGSLCLSCPASGGTSRVNAMGWYRQAPGKETELVARIRSGGSTYYADSVKGRFTISRDNAKNTVYFKMNRLKPEDTAVYHCAAVPRRTGQQQDMDYWGQGTQVTVSS | high polyreactivity
13 | QVQLVDSGGGLVQAGGSLLLSCAASGSTYKFYAMGWYRQAPGKERELVASITSSSGPTYYADSVKGRFTISRDNAKNTVYLQMKSLKPEDTAVYYCAKRPIRYYHLLRGNYWGQGTQVTVSS | low polyreactivity
14 | QVQLVDSGGGLVQAGGSLRESCAASGSTFYYNDMGWSRQAPGKDRELVAAIRTSGSTNYAESVKGRFTLSRDNAKNTVYLQMNSLKPEDTEVYYCNAVVRHWFPGWYGRGDDYWGQGTQVTVSS | low polyreactivity
15 | QVQLVDSGGGLVQAGGSLRLGCAASGRIFAGYGMGWYRQAPGKERELVATITSGGSTYYADSLKGRFTISRDNAKNTVYLQMNSLKPEDTAVYYCNRYFSEALLHGSSYNRYYYWGQGTQVSVSS | low polyreactivity
16 | QVQLVDSGGGLVQAGGSLRLICAASGRTFGTNALGWYRQAPGKEREFVAAIRWSDGSTYYADSVKGRFTISRDNAKNTVYLQMNSLKPEDTAVYYCAKEYYIVDVIHDYALYLYDYWGQGTQVTVSS | low polyreactivity
17 | QVQLVDSGGGLVQAGGSLRLICAASGRTIWYYAMGWYRQAPGKERELLASITRSGGSTYADSVKGRFTISRDNAKNSVYLQMYSLKPEDTAVDYCAATRPRIPVYQNNYGYWGQGTQVTVSS | high polyreactivity
